Results on two molecules are retold here after patent US20180172683A1 (published 2018).

By Kd is commonly meant the constant that tells how readily two partners part at equilibrium. Low readings indicate a tighter complex, high ones a looser complex. One may read the koff as a measure of how fast the partners let go of each other. Higher therefore signals a short-lived complex.

Ends that are not written are not given here. Ser‑Gly linker = flexible serine-glycine linker, six amino acids long

To fix the notation:
B1: B-cell lymphoma extra-large protein (Bcl-xL), first 209 amino acids with N-terminal avitag (other)
chain: AGGLNDIFEAQKIEWHEGGMSQSNRELVVDFLSYKLSQKGYSWSQFSDVEENRTEAPEGTESEMETPSAINGNPSWHLADSPAVNGATGHSSSLDAREVIPMAAVKQALREAGDEFELRYRRAFSDLTSQLHITPGTAYQSFEQVVNELFRDGVNWGRIVAFFSFGGALCVESVDKEMQVLVSRIAAWMATYLNDHLEPWIQENGGWDTFVELYGNNAAAESRKGQER
modifications: biotin on the avitag (BirA biotin ligase); a non-biotinylated form was used as the excess competitor in solution in the off-rate assays
notes: range 1-209; Expressed in E. coli BL21(DE3); Used in solution (forward assays) or immobilized through biotin on streptavidin plates or beads (reverse assay, off-rate and HTSK experiments); not shown: His tag implied (pET24a NdeI/XhoI, Ni-NTA purification, anti-HIS probe)

For experiment [1], the target named is T1, Bim peptide (synthetic 26-residue fragment of Bim, biotin-labeled) (C-terminal amide; biotin on the side chain of the C-terminal Lys). Nature of the experiment: equilibrium AMMP, monovalent model. The protocol: AMMP Assays. For the AMMP assays, 90 μL of each sample or standards was incubated with 30 μL of magnetic beads (12 μg of beads/mL) and fluorescein-labeled antibody (8 nM) in sample buffer for 1 hour. The experiment's run buffer was 1×PBS+1% (v/v) Tween-20+1% (v/v) heat-treated FBS (Invitrogen; FBS was heat treated for 15 minutes at 65° C. and filtered). BioScale Universal Detection Cartridges were used in performing all of the assays. The device was used per the manufacturer's instructions. The ligand of interest, capture ligand, target protein, and probe ligand used in example AMMP assays performed are highlighted in the table below.
T1 sequence (peptide, as listed by the source): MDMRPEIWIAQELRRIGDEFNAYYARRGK
A competing ligand of unknown Kd was incubated with the target and allowed to equilibrate. The target protein bound to the competing ligand is not anchored to the magnetic beads. Subsequent wash steps thereby […]. The Kd of interaction between the target protein and the competing ligand can then be determined by quantifying the amount of free target in solution.

Experiment [2] deals with T1, Bim peptide (synthetic 26-residue …). Nature of the experiment: equilibrium ELISA, monovalent model. The procedure: After the capture ligand incubation, 100 μL of sample or standards were added in each well, and incubated for 1 hour at room temperature. Plates were washed, incubated with HRP-conjugated probe antibody (such as anti-HIS tag antibody) in sample buffer for 1 hour, washed, and incubated with TMB substrate (Thermo Scientific). Reactions were stopped after approximately 10 minutes with 2 M sulfuric acid, and the absorbance at 450 nm was measured via a plate reader (Molecular Devices). The ligand of interest, capture ligand, target protein, and probe ligand used in example ELISA assays performed are highlighted in the table below.
Enzymatic Kd Calculation Assay. The Kd values of ligands of interest were determined using a protocol modified from Friguet et al., Journal of immunological methods, 77, 305-319 (1985). The samples were prepared and analyzed by ELISA assay in a similar process as described above. The OD450 for the standards and their concentration values were fit to a four parameter logistic curve (standard curve). The concentration of the free Bcl-xL in solution (responsible for the signal) for each sample was calculated using the standard curve, and converted into percent of Bcl-xL bound by ligand in solution. For each ligand, the values for all the tested concentration of Bcl-xL and peptide in solution were fit simultaneously to the monovalent equilibrium model below to obtain the dissociation constant Kd (in which [C]EQ, [T]₀, [L]₀ represent the concentration of the target-ligand complex at equilibrium, the initial concentration of the target protein, and the initial concentration of the ligand, respectively).
The equilibrium assay is a modified version of the method described by Friguet et al., supra. The samples were prepared and analyzed by ELISA assay in a similar process as described above.
On the technique in general: An ELISA detects its analyte on a solid surface through an enzyme-linked reagent.

Experiment [3] has the same target. Nature of the experiment: equilibrium ELISA and AMMP, monovalent model, Kd and [L]0 fit simultaneously.
For experiment [4], the target named is B1. Nature of the experiment: radiolabeled peptide off-rate, reference D1.
Experiment [5] has as its target B1. Nature of the experiment: radiolabeled HA-tagged peptide off-rate from immobilized Bcl-xL. The procedure:
The radiolabeled peptides were allowed to bind to 30 pmol immobilized Bcl-xL for 1 hour in sample buffer (1×PBS, 1% (w/v) BSA, 0.1% (v/v) Tween 20, 10 μM biotin). The beads were magnetically separated, and washed 5× with sample buffer. The beads were resuspended in 1 mL of sample buffer containing 3 μM non-biotinylated Bcl-xL (˜100× molar excess relative to immobilized biotinylated Bcl-xL). At various time points, 100 μL of slurry was removed and the beads were magnetically separated and washed. The percent remaining at each time point was determined by dividing the counts per minute (cpm) on beads by total cpm (beads+washes). The peptide off-rate was determined by an exponential fit of the Percent counts on beads vs. Time (s).
The peptide ligands were made using a C-terminal HA tag, and affinity purified.

B1: the equilibrium dissociation constant (Kd) worked out at 77 pM in experiment [1], 170 pM in experiment [2] and 150 pM in experiment [3].

B2: D79, radiolabeled in vitro translated peptide with C-terminal serine-glycine linker and HA tag (peptide)
peptide: MIDTNVILNYKKAADHFSITM-{Ser‑Gly linker-HA tag}
modifications: also: 35S-labeled methionine
notes: Frequency rank 79 in the doped selection pool; also called peptide D79; not shown: flexible serine-glycine linker, six amino acids long; HA tag
As to B2, in experiment [4], the “fold slower off-rate than D1” value is more than 3 fold. For the same molecule, the off-rate constant (koff) in experiment [5] stood at 5.9e-07 s⁻¹.
